Results on one substance are retold here after patent US20230272012A1, “PEPTIDES AND METHODS OF USE” (REALTA LIFE SCIENCES, INC., priority 2020, published 2023).

Holding throughout (format): cell-based
In assay [1] the target is T1, CTLA-4 (Homo sapiens, UniProt P16410).
T1 sequence (P16410 36-223): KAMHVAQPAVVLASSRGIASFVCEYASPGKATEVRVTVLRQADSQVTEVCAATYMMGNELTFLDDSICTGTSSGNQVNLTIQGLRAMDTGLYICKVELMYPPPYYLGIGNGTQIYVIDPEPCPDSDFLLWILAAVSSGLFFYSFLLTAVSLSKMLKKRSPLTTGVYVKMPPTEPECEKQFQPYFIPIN
Briefly: CTLA-4 Blockade Bioassay (Promega). Further details: host or cells: Jurkat T cells (CTLA-4 effector cells); aAPC/Raji cells. Conditions: increasing concentrations. How it is done:
CTLA-4 effector cells were incubated with aAPC/Raji Cells in the absence or presence of increasing concentrations of anti-CTLA-4 antibody (positive control), RLS-0127*, RLS-0130, RLS-0156, RLS-0170 and RLS-0174. Luminescence was detected in luminometer plate reader.
To assess if PIC1 peptides could block CTLA-4 inhibitory activity in a cell-based assay, select peptides were screened in the CTLA-4 Blockade Bioassay (Promega). This bioluminescent cell-based assay is used to measure the potency and stability of molecules targeting CTLA-4 and consists of two genetically engineered cell lines: CTLA-4 effector cells: Jurkat T cells expressing human CTLA-4 and a luciferase reporter driven by a native promoter which responds to TCR/CD28 activation and aAPC/Raji Cells: Raji cells expressing an engineered cell surface protein designed to activate cognate TCRs in an antigen-independent manner and endogenously expressing CTLA-4 ligands CD80 and CD86. When the two cell types are co-cultured, CTLA-4 competes with CD28 for their shared ligands, CD80 and CD86 and thus inhibits CD28 pathway activation and promoter-mediated luminescence. Addition of a molecule that blocks the interaction of CTLA-4 with its ligands CD80 and CD86 results in promoter-mediated luminescence.

Assay [2] addresses T2, PD-1/PD-L1 interaction (Homo sapiens, UniProt Q15116+Q9NZQ7).
T2 construct: host or cells: PD-1 effector cells; PD-L1 aAPC/CHO-K1 cells
Briefly: PD-1/PD-L1 Blockade Bioassay (Promega). The following applies: increasing peptide concentrations; listed as RLS-0118. How it is done: PD-1 effector cells were incubated with PD1-L1 aAPC cells in the absence or presence of increasing concentrations of anti-PD-1 antibody (positive control) and select PIC1 peptides. Luminescence was detected in luminometer plate reader.
To assess if PIC1 peptides could block PD-1 inhibitory activity in a cell-based assay, select peptides were screened in the PD-1/PD-L1 Blockade Bioassay (Promega). The PD-1/PD-L1 Blockade Bioassay is a biologically relevant MOA-based assay that can be used to measure the potency and stability of antibodies and other biologics designed to block the PD-1/PD-L1 interaction. This bioluminescent cell-based assay is used to measure the potency and stability of molecules targeting PD-1 and consists of two genetically engineered cell lines: aAPC/CHO-K1 Cells are CHO-K1 cells with an engineered cell surface protein designed to activate cognate TCRs in an antigen-independent manner. When the two cell types are co-cultured, the PD-1/PD-L1 interaction inhibits TCR signaling and NFAT-mediated luciferase activity. Addition of an inhibitory molecule that blocks either PD-1 or PD-L1 releases the inhibitory signal and results in TCR signaling and NFAT-mediated luciferase activity.

Assay [3] concerns human umbilical endothelial vein cells (HUVECs). Briefly: LPS-induced (non-VEGF mediated) angiogenesis in HUVECs. The following applies: peptides 10 mg/ml, LPS 10 ug/ml, overnight. The protocol: HUVEC cells were incubated with the indicated PIC1 peptides followed by LPS addition and plating onto extracellular matrix. After overnight incubation, evidence of angiogenesis was determined by fluorescence microscopy. Cells receiving LPS and not receiving LPS served as positive and negative controls for angiogenesis.
While VEGF-plays a major role in angiogenesis in cancer, other non-VEGF factors can induce angiogenesis to promote tumor growth. Currently there are no drugs on the market to inhibit non-VEGF mediated angiogenesis. To assess whether the PIC1 peptides could inhibit non-VEGF mediated angiogenesis, the inventors developed a model of angiogenesis using human umbilical endothelial vein cells (HUVECs) in which addition of lipopolysaccharide (LPS) induces angiogenesis. HUVECs were first incubated with Cell Trace Violet dye, followed by addition of PIC1 peptides (10 mg/ml) for 1 hour at 37° C. and then treated with 10 ug/ml of LPS and placement on an extracellular matrix to promote angiogenesis. Cells were incubated overnight at 37° C. in a humidified CO2 incubator. Cells were then visualized for tube formation indicative of angiogenesis by fluorescence microscopy.

The subject of assay [4] is purified human Pan T-cells. Briefly: T-cell exhaustion protocol (Dynabeads re-stimulation). Conditions: peptides 2 mg/ml at each stimulation; supernatant ELISA. The protocol:
Purified human pan-T-cells were subject to stimulation with Dynabeads every 48 hours over the period of 8 days with cells also receiving PIC1 peptides (2 mg/ml) at each stimulation. Cells not receiving Dynabeads were run in parallel to assess background levels of Caspase 3/7 signal. At the eighth day, cells were harvested and the levels of Caspase 3/7 determined by ELISA.
Purified human pan-T-cells were subject to stimulation with Dynabeads every 48 hours over the period of 8 days with cells also receiving PIC1 peptides (2 mg/ml) at each stimulation. Cell supernatants were collected at each stimulation and levels of IL-2 and IFN-gamma assayed by ELISA.
T-cell exhaustion is a form of T-cell dysfunction that occurs in cancer. It is defined by poor effector function, reduction in cytokine release (e.g., IL-2, TNF-alpha, IFN-gamma), sustained expression of inhibitory receptors (e.g., PD-1, LAG-3, CD244, CD160) with the progressive loss of effector function due to overstimulation. Exhaustion prevents optimal control of tumor growth. Exhausted T cells are prevalent in the tumor microenvironment (TME) and can lead to T-cell apoptosis. T-cell exhaustion is reversible, and pharmaceutical inhibition of T-cell exhaustion has been considered a promising strategy by many cancer researchers. To ascertain if PIC1 peptides could reverse T-cell exhaustion and increase T cell viability and effector function, a T-cell exhaustion protocol was developed. To induce T-cell exhaustion, purified human Pan T-cells were stimulated with T-Activator CD3/CD28 Dynabeads and cells are washed and re-stimulated every 48 hours. PIC1 peptides were added to the cells after each stimulation with Dynabeads. After three to four stimulations cells were harvested for readouts which consisted of assessing T-cell apoptosis by measuring Caspase 3/7 levels and production of cytokines IL-2 and IFN-gamma which is indicative of T-cell functionality. […] To further evaluate if PIC1 peptides could restore T-cell functionality in cells that have undergone the exhaustion protocol, the inventors next assessed production of cytokines IL-2 and IFN-gamma. Supernatants from the cells after each stimulation were collected and the cytokines measured by ELISA. […] The lower level of IFN-gamma signal compared to IL-2 was consistently seen in this assay.

Entries after “also recorded” stand apart in the source; their conditions may differ. Bridge positions count the residues as written; N and C are the ends. Square brackets hold non-standard residues; d marks the D form. Ends that are not written are not given here. S5 = C=CCCC[C@](C)(N)C(=O)O; Sar = CNCC(=O)O

T2 sequence (Q15116 25-288): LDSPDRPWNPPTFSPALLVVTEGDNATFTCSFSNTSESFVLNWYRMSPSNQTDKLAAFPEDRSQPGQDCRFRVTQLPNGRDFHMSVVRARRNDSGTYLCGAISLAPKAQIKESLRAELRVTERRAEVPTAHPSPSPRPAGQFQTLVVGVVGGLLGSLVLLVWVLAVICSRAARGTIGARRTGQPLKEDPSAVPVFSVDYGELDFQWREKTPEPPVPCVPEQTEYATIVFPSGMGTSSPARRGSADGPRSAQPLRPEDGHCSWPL
T2 sequence (Q9NZQ7 19-290): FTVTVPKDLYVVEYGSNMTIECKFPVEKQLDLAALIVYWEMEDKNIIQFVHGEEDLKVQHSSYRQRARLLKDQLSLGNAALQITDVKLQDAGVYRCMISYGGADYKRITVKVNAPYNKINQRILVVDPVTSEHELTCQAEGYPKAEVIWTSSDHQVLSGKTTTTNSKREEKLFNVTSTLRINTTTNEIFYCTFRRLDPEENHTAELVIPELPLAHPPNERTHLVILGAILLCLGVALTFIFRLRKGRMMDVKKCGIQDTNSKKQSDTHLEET

As to “IALILEP(Sar)S5CQES5AA (IALILEP[Sar][S5]CQE[S5]AA; staple 9-13) [PA-0118]”, in assay [1], the “inhibitory activity in CTLA-4 blockade bioassay (luminescence)” value is recorded as “did not”. In addition, the “inhibition of PD-1/PD-L1 inhibitory signaling (luminescence)” value in assay [2] is on record as “increase in luminescence indicative of inhibition of PD-1/PD-L1 inhibitory signaling; also recorded: able to inhibit PD-1/PD-L1 mediated cell signaling”. Besides, in assay [3], the “inhibition of LPS-induced angiogenesis (tube formation)” value is listed as “no signs of angiogenesis”. Further, in assay [4], the “IL-2 signal at stimulation 2” value is “did not”.
